One assay concerns the target T1, human LAG-3 protein (human, UniProt P18627 23-450, limits assumed).
T1 construct: also called human LAG-3 antigen; LAG-3 antigen
T1 sequence (looked up): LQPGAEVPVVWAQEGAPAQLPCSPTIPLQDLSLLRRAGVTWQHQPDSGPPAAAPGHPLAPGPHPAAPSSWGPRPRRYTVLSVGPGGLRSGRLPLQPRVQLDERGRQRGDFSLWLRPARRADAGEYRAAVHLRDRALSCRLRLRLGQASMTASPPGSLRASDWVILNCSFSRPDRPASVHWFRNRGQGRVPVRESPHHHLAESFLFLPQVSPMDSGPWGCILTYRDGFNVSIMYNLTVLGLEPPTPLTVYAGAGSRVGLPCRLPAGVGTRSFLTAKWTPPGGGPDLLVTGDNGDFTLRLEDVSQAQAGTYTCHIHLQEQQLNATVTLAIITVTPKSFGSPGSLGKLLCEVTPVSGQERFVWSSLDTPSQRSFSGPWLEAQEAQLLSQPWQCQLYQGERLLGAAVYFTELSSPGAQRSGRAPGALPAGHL
Kind of assay: binding ELISA on human LAG-3 protein (Test Example 1).

The target of assay [1] is T2, human LAG-3 full-length protein overexpressed on CHO-S cells (human, UniProt P18627 23-525).
T2 construct: whole, on cells; also called full-length LAG-3; CHO-S cells overexpressing the human LAG-3 full-length protein
T2 sequence (looked up): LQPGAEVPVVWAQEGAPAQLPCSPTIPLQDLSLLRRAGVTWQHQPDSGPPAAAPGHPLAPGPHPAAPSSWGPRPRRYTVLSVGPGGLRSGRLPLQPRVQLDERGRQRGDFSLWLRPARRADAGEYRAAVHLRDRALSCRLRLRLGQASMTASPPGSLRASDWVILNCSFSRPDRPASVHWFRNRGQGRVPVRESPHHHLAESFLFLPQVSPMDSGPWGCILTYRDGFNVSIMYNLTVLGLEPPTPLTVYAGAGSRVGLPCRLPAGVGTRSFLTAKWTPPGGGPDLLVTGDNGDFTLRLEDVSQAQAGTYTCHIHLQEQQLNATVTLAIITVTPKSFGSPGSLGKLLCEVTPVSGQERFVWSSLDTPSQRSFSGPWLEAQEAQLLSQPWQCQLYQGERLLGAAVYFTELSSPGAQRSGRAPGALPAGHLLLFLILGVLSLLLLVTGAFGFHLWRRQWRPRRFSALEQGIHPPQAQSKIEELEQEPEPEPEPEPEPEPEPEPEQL
Briefly: cell ELISA on CHO-S cells overexpressing human LAG-3 (Test Example 2). On the technique in general: In an ELISA, binding on a coated surface is turned into a signal by an enzyme label.

B1: mAb303 (antibody, V domains shown)
VH: EVQLQQSGPVLVKPGASVKMSCKASGYTLTDYYMNWVKQSHGKSLEWIGVINPYNGDTAYNQKFKGKATLTVDKSSNTAYMEINSLTSEDSAVYYCTRDDGYYDYYFDVWGTGTTVTVSS
VL: DIQMTQSPSSLSASLGERVILTCRASQDIGSRLNWLQQGPDGTFKRLIYATSTLDSGVPKRFSGSRSGSDFSLTISSLESEDFVDYYCLQLASSPPTFGGGTKLEIK
notes: also called LAG-3 antibody mAb303; hybridoma clone mAb303
Take B1: the binding result (with human LAG-3 protein; in assay [1]) was “binds” in each case.

B2: mAb229 (antibody, V domains shown)
VH: QIQLVQSGPELKKPGETVKISCKASGYTFTTSGMSWVKQAPGKGLKWMGWINTYSGVPTYADDFKGRFAFSLETSASTAYLQINNLKNEDTATYFCARDNYDARDVYYYAMDYWGQGTSVTVSS
VL: DIQMTQSPASLSVSVGETVTITCRASENIYSNLAWYQQKQGKSPQLLVYAATNLADGVPSRFSGSGSGTQYSLKINSLQSEDFGSYYCQHFWITPWTFGGGTKLEIK
notes: also called LAG-3 antibody mAb229; hybridoma clone mAb229
Take B2: the binding result (in the assay with human LAG-3 protein; in assay [1]) was “binds” throughout.
